Measured values taken from patent US20250297004A1, “NECTIN-4 BINDING AGENTS” (INNATE PHARMA, priority 2022, published 2025).
Where a chain is given by its changes, count along the chain named. Values belong to the molecule of their own block, whether it stands above or below them.

Key:
[1] = target: T1, human Nectin-4 expressed on cells (human, UniProt Q96NY8 32-510); assay: cell-based or functional assay
T1 sequence: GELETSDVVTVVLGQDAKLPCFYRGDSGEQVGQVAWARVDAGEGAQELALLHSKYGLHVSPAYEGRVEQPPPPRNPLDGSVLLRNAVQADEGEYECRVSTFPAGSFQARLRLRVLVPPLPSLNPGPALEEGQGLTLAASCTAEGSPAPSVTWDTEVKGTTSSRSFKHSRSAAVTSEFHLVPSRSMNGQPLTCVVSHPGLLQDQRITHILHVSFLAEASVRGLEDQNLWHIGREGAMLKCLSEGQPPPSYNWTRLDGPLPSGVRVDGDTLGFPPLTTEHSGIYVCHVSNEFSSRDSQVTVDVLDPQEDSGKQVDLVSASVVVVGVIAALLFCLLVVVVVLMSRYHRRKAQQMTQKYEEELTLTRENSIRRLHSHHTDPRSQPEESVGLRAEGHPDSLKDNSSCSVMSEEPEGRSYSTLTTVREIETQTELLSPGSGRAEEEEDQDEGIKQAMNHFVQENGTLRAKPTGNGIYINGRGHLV

[2] = target: T1, human Nectin-4 expressed on cells; assay: cell-based or functional assay; remark: listed apart in the source
[3] = target: human Nectin-4 (protein used in the SPR affinity measurements) (human) (UniProt Q96NY8); assay: SPR, human IgG1
[4] = target: T2, human Nectin-4 (Homo sapiens, UniProt Q96NY8); assay: Binding to human Nectin-4 by SPR; conditions: for ka: SPR association constant; for kd: SPR dissociation constant; for Kd: SPR, human IgG1 isotype antibodies
T2 sequence (Q96NY8 32-510): T1 sequence
Procedure: The antibodies in Table 3 of Example 3 were cloned as human IgG1 isotype antibodies, produced and purified, then tested for binding to human Nectin-4. Affinity of the 16 humanized variants, as well as their association and dissociation constants were assessed by SPR analysis. Table 4 summarizes all the calculated constants (Affinity constant KD (nM), association constant ka (1/Ms) and dissociation constant kd (1/s)).
The antibodies in Table 6 of Example 5 were cloned as human IgG1 isotype antibodies, produced and purified, then tested for binding to human Nectin-4. Affinity of the 16 humanized variants, as well as their association and dissociation constants were assessed by SPR analysis. Table 7 summarizes all the calculated constants (Affinity constant KD (nM), association constant ka (1/Ms) and dissociation constant kd (1/s)).

[5] = target: T1, human Nectin-4 expressed on cells; assay: flow cytometry on SUM190 cells, MedFI at saturation
Procedure: The humanized antibodies in Table 3 of Example 3 and in Table 6 of Example 5 were cloned, produced and purified, then tested for binding to Nectin-4 expressing cells by flow cytometry. Binding of humanized variants in human IgG1 format was determined on the SUM190 cell line expressing high levels of Nectin-4.

B1: H4L1 (antibody, human IgG1, V domains shown)
VH: QVQLVQSGAEVKKPGASVKVSCKASGYIFTSYWMHWVKQAPGQGLEWMGEIDPSDSYTNYNQKFKGRVTMTLDKSTSTTYMELSSLRSEDTAVYYCARGYGNYGDYWGQGTLVTVSS
VL: DVVMTQSPLSLPVTPGEPASISCRSSKSLLHSNGITYLYWYLQKPGQSPQLLIYQMSNLASGVPDRFSSSGSGTDFTLKISRVEAEDVGVYYCAQNLELPWTFGGGTKVEIK
notes: human IgG1 isotype
internalization efficiency on MDA-MB-468, normalized to chimeric parental antibody (Fab-ZAP, CTG), first column [1]: 31 % of chimeric parental | internalization efficiency on MDA-MB-468, normalized to chimeric parental antibody (Fab-ZAP, CTG), second column [1]: 31 % of chimeric parental | internalization efficiency on SUM190, normalized to chimeric parental antibody (Fab-ZAP, CTG), experiment 1 [2]: 73.5 % of chimeric parental | internalization efficiency on SUM190, normalized to chimeric parental antibody (Fab-ZAP, CTG), experiment 2 [2]: 72.6 % of chimeric parental | Kd [3]: 19.5 nM | koff [3]: 0.0059 s⁻¹ | kon [3]: 310000 M⁻¹ s⁻¹ | ka ([4]; second set (Table 7)): 310000 ± 30000 M⁻¹ s⁻¹ | kd ([4]; second set (Table 7)): 0.0059 ± 0.0003 s⁻¹ | Kd ([4]; second set (Table 7)): 19.5 ± 0.8 nM | Max MedFi [5]: 18400 MedFI

B4: H1L0 (antibody, human IgG1, V domains shown)
VH: B1 VH with I28T, K38R, K74T
VL: B1 VL with V2I, S69G
notes: human IgG1 isotype
internalization efficiency on MDA-MB-468, normalized to chimeric parental antibody (Fab-ZAP, CTG), first column [1]: -7.4 % of chimeric parental | internalization efficiency on MDA-MB-468, normalized to chimeric parental antibody (Fab-ZAP, CTG), second column [1]: -7.4 % of chimeric parental | internalization efficiency on SUM190, normalized to chimeric parental antibody (Fab-ZAP, CTG), experiment 1 [2]: 83.7 % of chimeric parental | internalization efficiency on SUM190, normalized to chimeric parental antibody (Fab-ZAP, CTG), experiment 2 [2]: 58.6 % of chimeric parental | Kd [3]: 67.3 nM | koff [3]: 0.0072 s⁻¹ | kon [3]: 110000 M⁻¹ s⁻¹ | ka ([4]; first set (Table 4)): 110000 M⁻¹ s⁻¹ | kd ([4]; first set (Table 4)): 0.0072 s⁻¹ | Kd ([4]; first set (Table 4)): 67.3 nM | Max MedFi [5]: 17300 MedFI

B5: H2L0 (antibody, human IgG1, V domains shown)
VH: B1 VH with I28T, K38R
VL: B1 VL with V2I, S69G
notes: human IgG1 isotype
internalization efficiency on MDA-MB-468, normalized to chimeric parental antibody (Fab-ZAP, CTG), first column [1]: -35.5 % of chimeric parental | internalization efficiency on MDA-MB-468, normalized to chimeric parental antibody (Fab-ZAP, CTG), second column [1]: -35.5 % of chimeric parental | internalization efficiency on SUM190, normalized to chimeric parental antibody (Fab-ZAP, CTG), experiment 1 [2]: 74.2 % of chimeric parental | internalization efficiency on SUM190, normalized to chimeric parental antibody (Fab-ZAP, CTG), experiment 2 [2]: 61.8 % of chimeric parental | Kd [3]: 46.4 nM | koff [3]: 0.0062 s⁻¹ | kon [3]: 130000 M⁻¹ s⁻¹ | ka ([4]; first set (Table 4)): 130000 M⁻¹ s⁻¹ | kd ([4]; first set (Table 4)): 0.0062 s⁻¹ | Kd ([4]; first set (Table 4)): 46.4 nM | Max MedFi [5]: 16700 MedFI

B6: H3L3 (antibody, human IgG1, V domains shown)
VH: B1 VH with K38R
VL: B1 VL with P8A, L11N
notes: human IgG1 isotype
internalization efficiency on MDA-MB-468, normalized to chimeric parental antibody (Fab-ZAP, CTG), first column [1]: 43.8 % of chimeric parental | internalization efficiency on MDA-MB-468, normalized to chimeric parental antibody (Fab-ZAP, CTG), second column [1]: 43.8 % of chimeric parental | internalization efficiency on SUM190, normalized to chimeric parental antibody (Fab-ZAP, CTG), experiment 1 [2]: 65.3 % of chimeric parental | internalization efficiency on SUM190, normalized to chimeric parental antibody (Fab-ZAP, CTG), experiment 2 [2]: 59.6 % of chimeric parental | Kd [3]: 27 nM | koff [3]: 0.007 s⁻¹ | kon [3]: 260000 M⁻¹ s⁻¹ | ka ([4]; first set (Table 4)): 260000 M⁻¹ s⁻¹ | kd ([4]; first set (Table 4)): 0.007 s⁻¹ | Kd ([4]; first set (Table 4)): 27 nM | Max MedFi [5]: 23800 MedFI

B8: H3L0 (antibody, human IgG1, V domains shown)
VH: B1 VH with K38R
VL: B1 VL with V2I, S69G
notes: human IgG1 isotype
internalization efficiency on MDA-MB-468, normalized to chimeric parental antibody (Fab-ZAP, CTG), first column [1]: 1.2 % of chimeric parental | internalization efficiency on MDA-MB-468, normalized to chimeric parental antibody (Fab-ZAP, CTG), second column [1]: 1.2 % of chimeric parental | internalization efficiency on SUM190, normalized to chimeric parental antibody (Fab-ZAP, CTG), experiment 1 [2]: 81.4 % of chimeric parental | internalization efficiency on SUM190, normalized to chimeric parental antibody (Fab-ZAP, CTG), experiment 2 [2]: 69.7 % of chimeric parental | Kd [3]: 35.8 nM | koff [3]: 0.0041 s⁻¹ | kon [3]: 110000 M⁻¹ s⁻¹ | ka ([4]; first set (Table 4)): 110000 M⁻¹ s⁻¹ | kd ([4]; first set (Table 4)): 0.0041 s⁻¹ | Kd ([4]; first set (Table 4)): 35.8 nM | Max MedFi [5]: 17600 MedFI

B9: H0L0 (antibody, human IgG1, V domains shown)
VH: B1 VH with I28T, K38R, L72R, K74T, T79V
VL: B1 VL with V2I, S69G
notes: human IgG1 isotype; also called HOLO; humanized 5E7 variant H0L0
internalization efficiency on MDA-MB-468, normalized to chimeric parental antibody (Fab-ZAP, CTG), first column [1]: -36.2 % of chimeric parental | internalization efficiency on MDA-MB-468, normalized to chimeric parental antibody (Fab-ZAP, CTG), second column [1]: -36.2 % of chimeric parental | internalization efficiency on SUM190, normalized to chimeric parental antibody (Fab-ZAP, CTG), experiment 1 [2]: 65.9 % of chimeric parental | internalization efficiency on SUM190, normalized to chimeric parental antibody (Fab-ZAP, CTG), experiment 2 [2]: 35.4 % of chimeric parental | Kd [3]: 80.2 nM | koff [3]: 0.014 s⁻¹ | kon [3]: 170000 M⁻¹ s⁻¹ | ka ([4]; first set (Table 4)): 170000 M⁻¹ s⁻¹ | ka ([4]; second set (Table 7)): 170000 M⁻¹ s⁻¹ | kd ([4]; first set (Table 4)): 0.014 s⁻¹ | kd ([4]; second set (Table 7)): 0.014 s⁻¹ | Kd ([4]; first set (Table 4)): 80.2 nM | Kd ([4]; second set (Table 7)): 80.2 nM | Max MedFi [5]: 15500 MedFI

Results, then the molecule that gave them:

internalization efficiency on MDA-MB-468, normalized to chimeric parental antibody (Fab-ZAP, CTG), first column [1]: 87.8 % of chimeric parental | internalization efficiency on MDA-MB-468, normalized to chimeric parental antibody (Fab-ZAP, CTG), second column [1]: 87.8 % of chimeric parental | internalization efficiency on SUM190, normalized to chimeric parental antibody (Fab-ZAP, CTG), experiment 1 [2]: 82.8 % of chimeric parental | internalization efficiency on SUM190, normalized to chimeric parental antibody (Fab-ZAP, CTG), experiment 2 [2]: 74.9 % of chimeric parental | Kd [3]: 21.5 nM | koff [3]: 0.0053 s⁻¹ | kon [3]: 250000 M⁻¹ s⁻¹ | Max MedFi [5]: 27100 MedFI
B2: H5L3 (antibody, human IgG1, kappa, V domains shown)
VH: B1 VH with A40R
VL: DVVMTQSALSNPVTPGEPASISCRSSKSLLHSNGITYLYWYLQKPGQSPQLLIYQMSNLASGVPDRFSSSGSGTDFTLKISRVEAEDVGVYYCAQNLELPWTFGGGTKVEIKR
notes: Tested as human IgG1

internalization efficiency on MDA-MB-468, normalized to chimeric parental antibody (Fab-ZAP, CTG), first column [1]: 13.7 % of chimeric parental | internalization efficiency on MDA-MB-468, normalized to chimeric parental antibody (Fab-ZAP, CTG), second column [1]: 13.7 % of chimeric parental | internalization efficiency on SUM190, normalized to chimeric parental antibody (Fab-ZAP, CTG), experiment 1 [2]: 69.8 % of chimeric parental | internalization efficiency on SUM190, normalized to chimeric parental antibody (Fab-ZAP, CTG), experiment 2 [2]: 45.5 % of chimeric parental | Kd [3]: 25.9 nM | koff [3]: 0.0081 s⁻¹ | kon [3]: 310000 M⁻¹ s⁻¹ | ka ([4]; first set (Table 4)): 310000 M⁻¹ s⁻¹ | kd ([4]; first set (Table 4)): 0.0081 s⁻¹ | Kd ([4]; first set (Table 4)): 25.9 nM | Max MedFi [5]: 22900 MedFI
B3: H3L2 (antibody, human IgG1, V domains shown)
VH: B1 VH with K38R
VL: B1 VL with L11N
notes: human IgG1 isotype

internalization efficiency on MDA-MB-468, normalized to chimeric parental antibody (Fab-ZAP, CTG), first column [1]: 48.2 % of chimeric parental | internalization efficiency on MDA-MB-468, normalized to chimeric parental antibody (Fab-ZAP, CTG), second column [1]: 48.2 % of chimeric parental | internalization efficiency on SUM190, normalized to chimeric parental antibody (Fab-ZAP, CTG), experiment 1 [2]: 82.1 % of chimeric parental | internalization efficiency on SUM190, normalized to chimeric parental antibody (Fab-ZAP, CTG), experiment 2 [2]: 41 % of chimeric parental | Kd [3]: 22 nM | koff [3]: 0.0087 s⁻¹ | kon [3]: 400000 M⁻¹ s⁻¹ | ka ([4]; first set (Table 4)): 400000 ± 30000 M⁻¹ s⁻¹ | kd ([4]; first set (Table 4)): 0.0087 ± 0.0004 s⁻¹ | Kd ([4]; first set (Table 4)): 22 ± 0.4 nM | Max MedFi [5]: 17200 MedFI
B7: H3L1 (antibody, human IgG1, V domains shown)
VH: B1 VH with K38R
VL: B1 VL
notes: human IgG1 isotype
